Assay results reported in patent publication US20230407373A1 (priority 2020, published 2023).
Read-outs that look alike come from different tables or passages of the source.

B1: DDX5: host protein, UniProt P17844 (protein, UniProt P17844 1-614, looked up)
Probable ATP-dependent RNA …: MSGYSSDRDRGRDRGFGAPRFGGSRAGPLSGKKFGNPGEKLVKKKWNLDELPKFEKNFYQEHPDLARRTAQEVETYRRSKEITVRGHNCPKPVLNFYEANFPANVMDVIARQNFTEPTAIQAQGWPVALSGLDMVGVAQTGSGKTLSYLLPAIVHINHQPFLERGDGPICLVLAPTRELAQQVQQVAAEYCRACRLKSTCIYGGAPKGPQIRDLERGVEICIATPGRLIDFLECGKTNLRRTTYLVLDEADRMLDMGFEPQIRKIVDQIRPDRQTLMWSATWPKEVRQLAEDFLKDYIHINIGALELSANHNILQIVDVCHDVEKDEKLIRLMEEIMSEKENKTIVFVETKRRCDELTRKMRRDGWPAMGIHGDKSQQERDWVLNEFKHGKAPILIATDVASRGLDVEDVKFVINYDYPNSSEDYIHRIGRTARSTKTGTAYTFFTPNNIKQVSDLISVLREANQAINPKLLQLVEDRGSGRSRGRGGMKDDRRDRYSAGKRGGFNTFRDRENYDRGYSSLLKRDFGAKTQNGVYSAANYTNGSFGSNFVSAGIQTSFRTGNPTGTYQNGYDSTQQYGSNVPNMHNGMNQQAYAYPATAAAPMIGYPMPTGYSQ
B2: RBM3: host protein, UniProt P98179 (protein, UniProt P98179 1-157, looked up)
RNA-binding protein 3: MSSEEGKLFVGGLNFNTDEQALEDHFSSFGPISEVVVVKDRETQRSRGFGFITFTNPEHASVAMRAMNGESLDGRQIRVDHAGKSARGTRGGGFGAHGRGRSYSRGGGDQGYGSGRYYDSRPGGYGYGYGRSRDYNGRNQGGYDRYSGGNYRDNYDN
B3: FUBP1: host protein, UniProt Q96AE4 (protein, UniProt Q96AE4 2-644, looked up)
Far upstream element-binding …: ADYSTVPPPSSGSAGGGGGGGGGGGVNDAFKDALQRARQIAAKIGGDAGTSLNSNDYGYGGQKRPLEDGDQPDAKKVAPQNDSFGTQLPPMHQQQSRSVMTEEYKVPDGMVGFIIGRGGEQISRIQQESGCKIQIAPDSGGLPERSCMLTGTPESVQSAKRLLDQIVEKGRPAPGFHHGDGPGNAVQEIMIPASKAGLVIGKGGETIKQLQERAGVKMVMIQDGPQNTGADKPLRITGDPYKVQQAKEMVLELIRDQGGFREVRNEYGSRIGGNEGIDVPIPRFAVGIVIGRNGEMIKKIQNDAGVRIQFKPDDGTTPERIAQITGPPDRCQHAAEIITDLLRSVQAGNPGGPGPGGRGRGRGQGNWNMGPPGGLQEFNFIVPTGKTGLIIGKGGETIKSISQQSGARIELQRNPPPNADPNMKLFTIRGTPQQIDYARQLIEEKIGGPVNPLGPPVPHGPHGVPGPHGPPGPPGPGTPMGPYNPAPYNPGPPGPAPHGPPAPYAPQGWGNAYPHWQQQAPPDPAKAGTDPNSAAWAAYYAHYYQQQAQPPPAAPAGAPTTTQTNGQGDQQNPAPAGQVDYTKAWEEYYKKMGQAVPAPTGAPPGGQPDYSAAWAEYYRQQAAYYAQTSPQGMPQHPPAPQGQ
B4: SRSF3 (protein, UniProt P84103 1-164, looked up)
Serine/arginine-rich splicing …: MHRDSCPLDCKVYVGNLGNNGNKTELERAFGYYGPLRSVWVARNPPGFAFVEFEDPRDAADAVRELDGRTLCGCRVRVELSNGEKRSRNRGPPPSWGRRPRDDYRRRSPPPRRRSPRRRSFSRSRSRSLSRDRRRERSLSRERNHKPSRSFSRSRSRSRSNERK
B5: PURA (protein, UniProt Q00577 2-322, looked up)
Transcriptional activator …: ADRDSGSEQGGAALGSGGSLGHPGSGSGSGGGGGGGGGGGGSGGGGGGAPGGLQHETQELASKRVDIQNKRFYLDVKQNAKGRFLKIAEVGAGGNKSRLTLSMSVAVEFRDYLGDFIEHYAQLGPSQPPDLAQAQDEPRRALKSEFLVRENRKYYMDLKENQRGRFLRIRQTVNRGPGLGSTQGQTIALPAQGLIEFRDALAKLIDDYGVEEEPAELPEGTSLTVDNKRFFFDVGSNKYGVFMRVSEVKPTYRNSITVPYKVWAKFGHTFCKYSEEMKKIQEKQREKRAACEQLHQQQQQQQEETAAATLLLQGEEEGEED
B6: HNRNPH3 (protein, UniProt P31942 1-346, looked up)
Heterogeneous nuclear …: MDWVMKHNGPNDASDGTVRLRGLPFGCSKEEIVQFFQGLEIVPNGITLTMDYQGRSTGEAFVQFASKEIAENALGKHKERIGHRYIEIFRSSRSEIKGFYDPPRRLLGQRPGPYDRPIGGRGGYYGAGRGSMYDRMRRGGDGYDGGYGGFDDYGGYNNYGYGNDGFDDRMRDGRGMGGHGYGGAGDASSGFHGGHFVHMRGLPFRATENDIANFFSPLNPIRVHIDIGADGRATGEADVEFVTHEDAVAAMSKDKNNMQHRYIELFLNSTPGGGSGMGGSGMGGYGRDGMDNQGGYGSVGRMGMGNNYSGGYGTPDGLGGYGRGGGGSGGYYGQGGMSGGGWRGMY

How the values were obtained:
Type in all cases: binding
SARS-CoV-2 gRNA = details: […]; LC-MS/MS; Probe I sample (first 199 lines of Table 2)
[1] = test system: SARS-CoV-2 gRNA and sgRNAs; details: for target (unweighted spectral count in RNP capture): Probe II capture, LC-MS/MS LFQ; for background (unweighted spectral count in control): no-probe control pull-down, used as background for Probe II
gRNA of HCoV-OC43 = details: for target (spectral count) / background (spectral count): type g_36_m, 36 hpi, Probe I; for target (spectral count): HCoV-OC43-infected HCT-8 cells; for background (spectral count): uninfected-probe control
HCoV-OC43 gRNA and sgRNA = details: for target (spectral count) / background (spectral count): type s_36_m, Probe II; for target (spectral count): HCoV-OC43-infected HCT-8 cells; for background (spectral count): uninfected-probe control
[2] = type n_48_v: 48 hours post-infection, infected cells, OC43 Probe I, unweighted spectral count
[3] = type n_48_v: 48 hours post-infection, no-probe control on infected cells
[4] = OC43 Probe II, 12 hpi (type n_12_v), infected cells, tested against no-probe control
[5] = type n_48_v, 48 hpi, OC43 Probe II capture on infected cells
[6] = type n_48_v, 48 hpi, no-probe control on infected cells
[7] = 36 hpi, type n_36_v, tested against no-probe control, FDR<10%
[8] = OC43 Probe II, 24 hpi (type n_24_v), infected cells, tested against no-probe control

Row | Molecule | target (unweighted spectral count of the protein in the RNP capture) (SARS-CoV-2 gRNA) | target (unweighted spectral count in RNP capture) [1] | background (unweighted spectral count in control) [1] | target (spectral count) (gRNA of HCoV-OC43) | background (spectral count) (gRNA of HCoV-OC43) | target (spectral count, OC43 Probe I RNP capture) (gRNA of HCoV-OC43; [2]) | background (spectral count, no-probe control) (gRNA of HCoV-OC43; [3]) | target (unweighted spectral count) (HCoV-OC43 gRNA and sgRNA; [4]) | target (unweighted spectral count, OC43 Probe II) (HCoV-OC43 gRNA and sgRNA; [5]) | background (unweighted spectral count, no-probe control) (HCoV-OC43 gRNA and sgRNA; [6]) | target (spectral count) (HCoV-OC43 gRNA and sgRNA; 36 hpi) | background (spectral count) (HCoV-OC43 gRNA and sgRNA; 36 hpi) | target (unweighted spectral count, OC43 Probe II capture) (HCoV-OC43 gRNA and sgRNA; [7]) | target (unweighted spectral count) (HCoV-OC43 gRNA and sgRNA; [8]) | further results
1 | B1 | 32 | 24 | 1 | 30 | 3 | 30 | 3 | 8 | 31 | 3 | 33 | 3 | – | – | –
2 | B2 | 15 | 21 | 1 | 14 | 2 | 17 | 1 | – | – | – | – | – | 10 | – | target (unweighted spectral count, OC43 Probe II capture) (HCoV-OC43 gRNA and sgRNA; 24 hpi, type n_24_v, tested against no-probe control, FDR<10%): 6
3 | B3 | 32 | 21 | 1 | 15 | 2 | – | 2 | 6 | 21 | 2 | 17 | 1 | 17 | 12 | –
4 | B4 | 16 | 20 | 1 | – | – | – | – | – | – | – | – | – | – | – | background (spectral count, no-probe control) (gRNA of HCoV-OC43): 3; target (spectral count, OC43 Probe I RNP capture) (gRNA of HCoV-OC43): 14; background (unweighted spectral count, no-probe control) (HCoV-OC43 gRNA and sgRNA): 3; target (unweighted spectral count) (HCoV-OC43 gRNA and sgRNA): 6; target (unweighted spectral count, OC43 Probe II capture) (HCoV-OC43 gRNA and sgRNA): 18; target (unweighted spectral count, OC43 Probe II) (HCoV-OC43 gRNA and sgRNA): 16
5 | B5 | 15 | 19 | 1 | – | – | 7 | 1 | – | 12 | 1 | – | – | 5 | – | –
6 | B6 | 23 | 17 | 1 | – | – | 16 | 2 | 6 | 21 | 2 | – | – | 18 | 15 | –
